The target in assay [1] is recombinant receptor binding domain (RBD) of SARS-CoV-2 spike protein, residues 319-528, deglycosylated (SARS-CoV-2) (UniProt P0DTC2). Nature of the assay: crystal structure RBD/COV2-2196/COV2-2130.
For assay [2], the target named is SARS-CoV S2Pecto (SARS-CoV) (UniProt P59594). Nature of the assay: ELISA on coated antigen.
For assay [3], the target named is recombinant receptor binding domain (RBD) of SARS-CoV-2 spike protein, residues 319-528, deglycosylated (SARS-CoV-2) (UniProt P0DTC2). Kind of assay: crystal structure RBD/COV2-2196.

Chain of COV2-2196 Fab (recombinant, wt sequence) (VH): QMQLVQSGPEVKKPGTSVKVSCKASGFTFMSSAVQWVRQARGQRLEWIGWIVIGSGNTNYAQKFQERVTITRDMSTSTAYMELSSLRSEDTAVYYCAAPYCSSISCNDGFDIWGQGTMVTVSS
Chain of COV2-2196 Fab (recombinant, wt sequence) (VL): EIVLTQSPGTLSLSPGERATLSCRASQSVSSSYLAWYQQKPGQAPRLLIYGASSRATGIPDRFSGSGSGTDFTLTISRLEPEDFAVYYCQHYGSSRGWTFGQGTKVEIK

Consider “COV2-2196 Fab (recombinant, first two amino acids of the variable region mutated from QM to EV)”, for which, in assay [1], the buried surface area of the interface amounted to 650 Å^2. “rCR3022 (recombinant form of the cross-reactive SARS-CoV SRBD mAb CR3022) (antibody)”: the EC50 in assay [2] was determined as 5.2 ng/mL.

In the case of “COV2-2196 Fab (recombinant, wt sequence)”, the buried surface area of the interface in assay [3] came out at 650 Å^2. COV2-2094 (antibody) came in with an EC50 in assay [2] of 11.7 ng/mL.

As a reminder, the EC50 is the concentration at which the effect is half-maximal. Read a low EC50 as an effect from little substance.
